According to PMC8103780:

Target: SARS-CoV-2 nucleocapsid protein (N-protein) (SARS-CoV-2, UniProt P0DTC9 1-419)
Experiment: SV-AUC

| Binder | Kd |
| --- | --- |
| TTTTTT (ssDNA) [T6] | 290 nM |
| TTTTTTTTTT (ssDNA) [T10] | < 100 nM |
| GTGT (ssDNA) [(GT)2] | > 10000 nM |
